Results as given in the DeepSol protein solubility set.

Assay: soluble on expression in E. coli; label from the status in PepcDB or PDB records

Row | Sequence | soluble on expression in E. coli
1 | MGSDKIHHHHHHMQCIRVGVIGAGGVAQVEHIPNLLKLHRQFKILGVYDPSRKVRAFVGEEFGLETFSDLDALLAMPLDAVVIASPDALHREQSLAAFARGLHVFCEKPLCYGAQDIDQLIAARDRAGKVLQVGYMKRFDPSYEAALNMLPGTARTLRSVSVEVNDPDAWPFIRHASTCRGDDVAAELIASTEARQREQVDRAVPGLDDPHAFRGFVGAYSSSIVHDVNAVHGLLDALGVADGEIVGASLFAKGEAGQGTVRLLDGQALWTMAHIATPGLPDYRERITLHFDDASLELEFPSPYLNHQPTRLTIRTGDGHTLSSRDIRSGYEEAFVEELKGFWSAIVEGTAVRNTAEHARRDMTLLAGLTRHHLDQSKQSGVRP | not soluble
2 | MAAASVKGFFQRTGISIKEYFKRMGNDYATVARETVQGCKDRPVKAGVVFSGLGFLTYAYQTNPTELEMYDYLCERRQKLVLVPNSEHNPATTKELTARDFLISQNRLHYYNLWFFSLLVASDYNDKLRIYSSQDSNLKDWPWTELWRNIVDIGALGRWHRMETAFVDYDVNTDEIDLLPDGDKN | not soluble
3 | MRFVYLSDLDNNQKNFYKEADRQSALLSMLIEKDIDFIGAGANFYQVGSKKDWSQFPLFADSLLHRSNSLISLQWMEKVEEKDIDEHFQQIHKNYPLAKLYTVPKDQPKTYGYVMKNHEPIYIATDIYPRDEKNTPLIGFYSSRERFNLVVEEFLTTGRPSVSDKIRLLQDSLDQSAQKTGMLVYHPVFTSDKTALKGVMVGVVRITSYFDRLVNSTSLGEELVVRIIDTGFDAGDDPIMYQSSTWNNFKGVDYTTSVKIENRLWKIEYKSDNKLNEYQRLTLEHHHHHH | not soluble
4 | MKLIITEDYQEMSRVAAHHLLGYMSKTRRVNLAITAGSTPKGMYEYLTTLVKGKPWYDNCYFYNFDEIPFRGKEGEGVTITNLRNLFFTPAGIKEENIQKLTIDNYREHDQKLAREGGLDLVVLGLGADGHFCGNLPNTTHFHEQTVEFPIQGEMVDIVAHGELGGDFSLVPDSYVTMGPKSIMAAKNLLIIVSGAGKAQALKNVLQGPVTEDVPASVLQLHPSLMVIADKAAAAELAFG | soluble
5 | QAALNSLGTNSVAATTAAQKIDQVATQPLMSFGVTMATFAAQNYGAHQYERIITGVKQTMWLSGSFSVAAGLIEIIWGKQLVGFFVGHQDMAVLNL | not soluble
6 | MGSDKIHHHHHHMMTTVKDSTPAARELYLDLLVRILLNTIYQDPAINPGVRPMVVEPFNPKTRAIGKDWPTQAHTMVGQARLENLRQLSQQVLDDGIVGDFIETGVWRGGCCILMRGVLAANQIHDRKVYVADSFAGLPAPNVELYPRDTGWDLHEFKELAVSLQTVKDNFSRYGLLDEQVVFVEGMFSDTLPSLSAGPFALLRLDGDLYESTIVALNSLYPKLSRGGVVIIDDRALDPCRRAVIDFRDKHGITAPMQEVDWTGSWWRKE | not soluble
7 | SNAMATNLIGLDTTQSQKLANALNNLLANYQVFYMNTRGYHWNIQGKEFFELHAKFEEIYTDLQLKIDELAERILTLSARPMHSFSGYLKAAQIKEHTDSIDGRSSMQGLVDGFSILLHQQRDILELAGETGDEGTSALMSDYIREQEKLVWMLNAWLK | soluble
8 | MNIIKGNIASPLGFSADGLHAGFKKKKLDFGWIVSEVPANVAGVFTTNKVIAAPLKLTKNSIEKSGKMQAIVVNSGIANSCTGKQGEKDAFKMQQLAANKLQIQPEYVGVASTGVIGKVMPMSILKNGFSKLVKNGNADDFAKAILTTDTHTKTCVVNEEFGSDTVTMAGVAKGSGMIHPNLATMLAFITCDANISSQTLQQALKDVVEVTFNQITVDGDTSTNDMVLVMSNGCTNNNEIKKDSEDYYKFKQMLLYIMTDLAKSIARDGEGASKLIEVTVKGAKESSAARMIAKSVVGSSLVKTAIFGEDPNWGRIIAAAGYAKTYFDINQVDIFIGRIPVLIRSSPVKYDKEEIQEIMSAEEISIQLDLHQGNCEGQAWGCDLSYDYVKINALYTTLEHHHHHH | not soluble
9 | MFLQHNNQLICNLEKMGLTENEAKAYVGLVSLGEATAREVHELTNVPRAKIYEVLKVLAKRGYLEVRQGSPTYFRAVDPKQVIGKIKDEFINCAIETLDQLNELSYELPRTSPVWCIQSEWGIKNRIREILNGVKEELIVFSSSPRFFQEFEAELKKLEKTCQLTFIISEPEKFESFPFEFRETTKEFREFLNNIVIDGIRYDEEFFMIADGKESIGVHSAGDKREAVVIKLPVVCYLQKMIYDRVLEPSFVKKNRKSA | not soluble
10 | MNFETVIGLEVHVELKTKSKIFSSSPNAFGAPPNTQTNVIDLGYPGVLPVLNRQAVEFAMKAAMALNCEIATETKFDRKNYFYPDNPKAYQISQYDQPLGKNGWIEIEVNGKKKKIGITRIHLEEDAGKLTHTGDGYSLVDFNRQGTPLIEIVSEPDIRSPEEAYAYLEKLKAIIQYTGVSDCKMEEGSLRCDANISLRPIGSDKFGTKTELKNLNSFNFVRMGLEYEAKRQEKILLSGGVIRQETRRFDEATKTTVLMRVKEGSEDYRYFPEPDLVMLYIDDEWKERVRASIPELPDARRKRYIEEWGLPEYDAKVLTLTKEMADFFEATVANGADPKLASNWLMVEVSGYLNAEQKELHDIALTPESLAGMIKLIQDGTISSKIAKKVFKELVEHGGDPERIVKEKGLVQISDEGALRKIVLEVLDANPQSVEDYKNGKDRALGFLVGQVMKATKGQANPPLVNKLLVEEIGKR | not soluble
11 | LSFSSAVKNELCRVETDRSSSLFELAAAARISGLIKVVNANEINLRLVTENAAFARRIFSQIKDLYGINAEISIRRSPKLKKNIVYIIVLTSSKGLMRILEDINIKVSEKVEYIPYARCMRKKEYRKAYLRGAFLASGSMSDPEKTYHLEITCHNMALATEVSDLMDSFKLHSKVTKRKGNYVVYLKEGENIVDFLNIIGAHSALLELENIRILKEMRNNVNRIVNCETANLQKTVDASVRQVENINYIKEHLGFDKLPENLREIAKMRLAYSDATLKELGEMLNPPLGKSGVNHRLRKLDKIAESLRNMKGEL | soluble
12 | GMNLDSYERTGLRVSLDLVNIATPGSRRGTPHTGGCVIEDLHDLLKDDPASVAQLGDDHVEGFVELARLLHTAIDALSNGQVATAATALNHLLRKHPATPELAQDPDGTWRLHHHPLDAELVPMWTAICAEGLAREIGHQNVRRFGICNAHRCDRVYFDTSRNGTRQYCSLACQNRVKAAAFRERRAT | soluble
13 | MSVPSSLSQSAINANSHGGPALSLPLPLHAAHNQLLNAKLQATAVGPKDLRSAMGEGGGPEPGPANAKWLKEGQNQLRRAATAHRDQNRNVTLTLAEEASQEPEMAPLGPKGLIHLYSELELSAHNAANRGLRGPGLIISTQEQGPDEGEEKAAGEAEEEEEDDDDEEEEEDLSSPPGLPEPLESVEAPPRPQALTDGPREHSKSASLLFGMRNSAASDEDSSWATLSQGSPSYGSPEDTDSFWNPNAFETDSDLPAGWMRVQDTSGTYYWHIPTGTTQWEPPGRASPSQGSSPQEESQLTWTGFAHGEGFEDGEFWKDEPSDEAPMELGLKEPEEGTLTFPAQSLSPEPLPQEEEKLPPRNTNPGIKCFAVRSLGWVEMTEEELAPGRSSVAVNNCIRQLSYHKNNLHDPMSGGWGEGKDLLLQLEDETLKLVEPQSQALLHAQPIISIRVWGVGRDSGRDFAYVARDKLTQMLKCHVFRCEAPAKNIATSLHEICSKIMAERRNARCLVNGLSLDHSKLVDVPFQVEFPAPKNELVQKFQVYYLGNVPVAKPVGVDVINGALESVLSSSSREQWTPSHVSVAPATLTILHQQTEAVLGECRVRFLSFLAVGRDVHTFAFIMAAGPASFCCHMFWCEPNAASLSEAVQAACMLRYQKCLDARSQASTSCLPAPPAESVARRVGWTVRRGVQSLWGSLKPKRLGAHTP | soluble
14 | MMVLRMKVEWYLDFVDLNYEPGRDELIVEYYFEPNGVSPEEAAGRIASESSIGTWTTLWKLPEMAKRSMAKVFYLEKHGEGYIAKIAYPLTLFEEGSLVQLFSAVAGNVFGMKALKNLRLLDFHPPYEYLRHFKGPQFGVQGIREFMGVKDRPLTATVPKPKMGWSVEEYAEIAYELWSGGIDLLKDDENFTSFPFNRFEERVRKLYRVRDRVEAETGETKEYLINITGPVNIMEKRAEMVANEGGQYVMIDIVVAGWSALQYMREVTEDLGLAIHAHRAMHAAFTRNPRHGITMLALAKAARMIGVDQIHTGTAVGKMAGNYEEIKRINDFLLSKWEHIRPVFPVASGGLHPGLMPELIRLFGKDLVIQAGGGVMGHPDGPRAGAKALRDAIDAAIEGVDLDEKAKSSPELKKSLREVGLSKAKVGVQH | soluble
